This is an account of results in the supplement of paper PMC10126150.

The test system of this series is ATP. Briefly: switch fluorescence ratio, 500 uM ATP over buffer (Cy3 cluster intensity, sum of 5 cycles each) (fold (ratio)); higher = stronger signal-on switching upon ATP binding; sequences stand for … in TCGTCGGCAGCGTCAGATGTGTATAAGAGACAGTTTTTTTTTTTTTTTTTTTTTTTTT…TC. The note with it: aptamer strand: ATP DNA aptamer (quencher-CACCTGGGGGAGTATTGCGGAGGAAGG + anchor), 100 nM annealed; ATP concentration: 500 uM. The procedure, abridged: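 Between each of five buffer/ATP cycles, the flow-cell was stripped with NaOH and re-annealed. Each cycle imaged Cy3-labelled switching-strand clusters, annealed to 100 nM quencher-labelled ATP aptamer on a modified Illumina MiSeq flow-cell, first in selection buffer and then after 15 min with 500 uM ATP at 22 °C. The fluorescence ratio is summed target-cycle over summed buffer-cycle Cy3 intensity per cluster, averaged per switch-domain sequence, with clusters outside 100-1000 RFU excluded.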

± gives the standard deviation of the averaged measurements.
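Also: ATP exposure 15 min at 22 °C before imaging.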

Turning to TGGTCCTGGT, the switch fluorescence ratio was found to be 0.997 ± 0.019. Under TGGTCGCCGT stands 0.978 ± 0.14. Under TGGTCGGTCT stands 1.07 ± 0.074; under TGGTCGTCGG, 0.985 ± 0.037; under TGGTGAAAGA, 1.01 ± 0.029. The value for TGGTGAAAGT was 0.982 ± 0.025; that for TGGTGAACGT was 1 ± 0.053; that for TGGTGACTAG was 0.967 ± 0.024.

As to TGGTGCATTT, the switch fluorescence ratio was determined as 1.06 ± 0.14. Under TGGTGCTAAG stands 1.03 ± 0.02; under TGGTGGAGTC, 1.02 ± 0.046. Under TGGTGGATGG stands 1.22 ± 0.29; under TGGTGGCTGG, 0.989 ± 0.028; under TGGTGGGCGA, 1.04 ± 0.058. Under TGGTGGGGGA stands 0.987 ± 0.015; under TGGTGGGTGC, 1.04 ± 0.044; under TGGTGGTCGC, 0.9778 ± 0.0044. Turning to TGGTGTAAGA, the switch fluorescence ratio turned out to be 1.04 ± 0.025. Under TGGTGTAAT stands 1 ± 0.03; under TGGTGTTTGG, 0.979 ± 0.032; under TGGTTAAAAA, 0.98 ± 0.049. Under TGGTTAATGC stands 1.48 ± 0.1; under TGGTTAATGG, 0.989 ± 0.038. As to TGGTTACATG, the switch fluorescence ratio came to 1.02 ± 0.014. Under TGGTTAGAAT stands 0.986 ± 0.024; under TGGTTAGTGT, 1.01 ± 0.057. The value for TGGTTATGGG was 0.985 ± 0.022; that for TGGTTATGTT was 1.02 ± 0.023; that for TGGTTATTGT was 0.974 ± 0.032. Regarding TGGTTCGAGA, the switch fluorescence ratio was found to be 0.979 ± 0.025. Under TGGTTCGTTA stands 1 ± 0.05; under TGGTTCGTTT, 0.995 ± 0.055; under TGGTTCTCGA, 0.987 ± 0.012. The value for TGGTTCTGGG was 0.973 ± 0.013. In the case of TGGTTCTTAA, the switch fluorescence ratio came to 1.01 ± 0.041.

Take TGGTTGCTGA: the switch fluorescence ratio is 1 ± 0.033. Under TGGTTGGGTT stands 1 ± 0.021; under TGGTTGGTTG, 0.988 ± 0.02. Under TGGTTGTACG stands 1.01 ± 0.027. The value for TGGTTGTGCG was 1.04 ± 0.018. For the sequence TGGTTGTTGG, the switch fluorescence ratio came out at 0.95 ± 0.02.

With TGGTTTAAAT, the switch fluorescence ratio came out at 1.04 ± 0.054. The value for TGGTTTAGCG was 0.964 ± 0.03; that for TGGTTTCGGT was 0.9903 ± 0.0017; that for TGGTTTGATT was 1.003 ± 0.0064. Turning to TGGTTTGGCG, the switch fluorescence ratio is 1.02 ± 0.18. The value for TGGTTTGGTG was 0.985 ± 0.034; that for TGGTTTTCTG was 1.03 ± 0.051. The value for TGGTTTTGAT was 1.001 ± 0.0047; that for TGGTTTTGC was 1.01 ± 0.023. Under TGGTTTTGTT stands 1.01 ± 0.058; under TGGTTTTTCC, 1.11 ± 0.12; under TGGTTTTTT, 0.998 ± 0.03. With TGTAAAAAT, the switch fluorescence ratio is 1.01 ± 0.042. With TGTAAAGGGG, the switch fluorescence ratio stood at 1.01 ± 0.029.

As for TGTAAATGTG, the switch fluorescence ratio came to 1 ± 0.028. The value for TGTAACTGTG was 1.15 ± 0.028. On to TGTAAGGTTT, for which the switch fluorescence ratio was 1.01 ± 0.024. For the sequence TGTAAGTAGG, the switch fluorescence ratio amounted to 1.04 ± 0.025. Regarding TGTAATGGGG, the switch fluorescence ratio was determined as 0.966 ± 0.015. Turning to TGTAATTCTA, the switch fluorescence ratio amounted to 1.011 ± 0.0032. In the case of TGTACCTTTA, the switch fluorescence ratio worked out at 1.04 ± 0.038. The value for TGTACGGAGG was 1.04 ± 0.057.

On to TGTACTATGC, for which the switch fluorescence ratio amounted to 1.06 ± 0.058. Turning to TGTAGAGGGA, the switch fluorescence ratio came out at 1.005 ± 0.0046. Under TGTAGATGGC stands 1.03 ± 0.044; under TGTAGATTTT, 0.981 ± 0.011; under TGTAGCCAGT, 1.05 ± 0.07. Under TGTAGGGGCT stands 0.982 ± 0.026; under TGTAGGTTCT, 1.06 ± 0.051; under TGTAGTCCTT, 0.949 ± 0.015. Under TGTAGTTTTT stands 0.961 ± 0.025. Take TGTATATAGC: the switch fluorescence ratio was 1 ± 0.021. The value for TGTATATCTA was 1.02 ± 0.025; that for TGTATCGTCG was 0.944 ± 0.023. The value for TGTATGAGGT was 1.02 ± 0.013; that for TGTATGATGT was 1.03 ± 0.049; that for TGTATTTAAG was 0.97 ± 0.035. The value for TGTCAAAAAC was 1.28 ± 0.29. With TGTCAAAAAG, the switch fluorescence ratio was found to be 1 ± 0.017. The value for TGTCACAAGC was 1.02 ± 0.013. Regarding TGTCAGGGTT, the switch fluorescence ratio came to 1 ± 0.014.

Regarding TGTCAGTCGA, the switch fluorescence ratio came out at 1.002 ± 0.0036. The value for TGTCATCTAC was 1.02 ± 0.016; that for TGTCATGTAT was 0.987 ± 0.021; that for TGTCCGGTGG was 1.01 ± 0.066. Under TGTCGACTTG stands 0.9716 ± 0.0066. Under TGTCGGGATG stands 1.01 ± 0.022; under TGTCTACTCT, 1 ± 0.022; under TGTGAAACAA, 1.01 ± 0.03. As to TGTGAAACGG, the switch fluorescence ratio is 0.9916 ± 0.0072. The value for TGTGAAATAG was 1.02 ± 0.028; that for TGTGAACGGA was 1.004 ± 0.01; that for TGTGAAGGCG was 1.71 ± 1.

As for TGTGAATCCA, the switch fluorescence ratio is 0.976 ± 0.027. Under TGTGAATTCT stands 0.993 ± 0.023; under TGTGACAATG, 0.997 ± 0.012; under TGTGACGAAC, 1.23 ± 0.045. With TGTGAGAGGT, the switch fluorescence ratio amounted to 0.995 ± 0.012. As for TGTGAGGGGG, the switch fluorescence ratio was 1.01 ± 0.038. On to TGTGATCGAC, for which the switch fluorescence ratio worked out at 1.01 ± 0.018.

As for TGTGATGAT, the switch fluorescence ratio worked out at 1.01 ± 0.028. The value for TGTGATGTGG was 1.04 ± 0.083; that for TGTGATTGGC was 1.03 ± 0.041. As to TGTGATTGTG, the switch fluorescence ratio was determined as 0.967 ± 0.015. Turning to TGTGATTTGT, the switch fluorescence ratio was found to be 0.9702 ± 0.0032. As for TGTGCATCT, the switch fluorescence ratio worked out at 1.01 ± 0.015. In the case of TGTGGAATAA, the switch fluorescence ratio amounted to 1.03 ± 0.039.

Turning to TGTGGATGGT, the switch fluorescence ratio stood at 0.956 ± 0.019. Under TGTGGCACAT stands 1.005 ± 0.0065; under TGTGGCGATT, 1.02 ± 0.016; under TGTGGCGCCA, 0.987 ± 0.04. As for TGTGGCGTTT, the switch fluorescence ratio turned out to be 1.04 ± 0.059. With TGTGGCTATG, the switch fluorescence ratio was found to be 1.02 ± 0.014. As to TGTGGGAAGG, the switch fluorescence ratio was 1.05 ± 0.074. Regarding TGTGGGATAT, the switch fluorescence ratio stood at 1.05 ± 0.068. In the case of TGTGGGGGCT, the switch fluorescence ratio is 1 ± 0.026. The value for TGTGGGGGTG was 1.01 ± 0.033; that for TGTGGGGTTT was 1 ± 0.057.

For the sequence TGTGGGTATA, the switch fluorescence ratio is 0.995 ± 0.02.
